Measurements: US20120219559A1 (Johns Hopkins, published 2012)

Key:
Test in all cases: CDS well image, 293T cells transfected with the human gene, stained with the human fusion protein
[1] = target: T1, human ICOS, full length, expressed on cells (ICOS+293T cells) (human, UniProt Q9Y6W8 21-199)
T1 construct: This id also stands for ICOS on human T cells in the functional rows
T1 sequence: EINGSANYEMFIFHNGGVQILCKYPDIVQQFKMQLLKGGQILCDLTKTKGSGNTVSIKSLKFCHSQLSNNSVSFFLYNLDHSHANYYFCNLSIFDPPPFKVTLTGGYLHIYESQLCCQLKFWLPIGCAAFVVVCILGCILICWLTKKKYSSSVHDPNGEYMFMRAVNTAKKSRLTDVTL

[2] = target: T2, human CD28, full length, expressed on cells (CD28+293T cells) (human, UniProt P10747 19-220)
T2 construct: This id also stands for CD28 on purified human T cells in the functional rows; also called CD28+ cells
T2 sequence (P10747 19-220): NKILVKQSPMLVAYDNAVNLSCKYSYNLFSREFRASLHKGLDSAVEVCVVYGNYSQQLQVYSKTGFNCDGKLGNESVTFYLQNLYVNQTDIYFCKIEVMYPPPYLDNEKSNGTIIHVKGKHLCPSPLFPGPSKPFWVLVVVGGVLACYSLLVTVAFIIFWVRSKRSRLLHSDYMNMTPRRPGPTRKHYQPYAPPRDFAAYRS

[3] = target: T3, human B7-DC expressed on 293T cells (human, UniProt Q9BQ51 20-273)
T3 construct: whole, on cells
T3 sequence (looked up): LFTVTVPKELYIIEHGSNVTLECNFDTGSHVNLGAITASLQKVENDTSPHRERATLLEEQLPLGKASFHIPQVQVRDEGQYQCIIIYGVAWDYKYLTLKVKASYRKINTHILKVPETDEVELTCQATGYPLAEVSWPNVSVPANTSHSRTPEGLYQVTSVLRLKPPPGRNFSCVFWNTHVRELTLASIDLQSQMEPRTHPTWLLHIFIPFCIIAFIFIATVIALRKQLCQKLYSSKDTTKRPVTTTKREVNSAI

[4] = target: T4, human B7-2 (CD86, B70) expressed on 293T cells (human, UniProt P42081 24-329)
T4 construct: whole, on cells
T4 sequence (looked up): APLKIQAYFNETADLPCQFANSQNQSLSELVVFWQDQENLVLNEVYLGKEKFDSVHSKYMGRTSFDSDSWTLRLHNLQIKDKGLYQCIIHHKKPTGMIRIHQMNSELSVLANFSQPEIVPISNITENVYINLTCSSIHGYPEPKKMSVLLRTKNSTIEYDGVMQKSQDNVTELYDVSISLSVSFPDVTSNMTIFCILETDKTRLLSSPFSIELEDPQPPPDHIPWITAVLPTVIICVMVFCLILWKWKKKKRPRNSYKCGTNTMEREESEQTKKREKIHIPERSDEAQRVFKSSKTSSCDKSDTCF

Measured: binding result

B1: human ICOSIg fusion protein (Fc fusion)
chain: EINGSANYEMFIFHNGGVQILCKYPDIVQQFKMQLLKGGQILCDLTKTKGSGNTVSIKSLKFCHSQLSNNSVSFFLYNLDHSHANYYFCNLSIFDPPPFKVTLTGGYLHIYESQLCCQLKF
notes: Bought from R&D Systems; Ig (Fc) part not given
no binding: all assays above
